This is an account of results in the nanobody polyreactivity screen of Harvey et al. (2022).

This series in a line: yeast display, Sf9 membrane polyspecificity reagent, FACS + sequencing; frameworks hold sequencing errors. A digest of the protocol:
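Genes from sorted yeast were amplified by colony PCR, read by MiSeq 2 × 250 sequencing and filtered on CDR length. These cells carried a synthetic nanobody library in Saccharomyces cerevisiae BJ5465 and were sorted by FACS into low and high (top ~1%) gates on anti-HA and streptavidin fluorescence. Polyreactivity is labelled according to the gate of origin.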
As to “QVQLVESGGGLVQAGGSLRLSCAASGFTFTKNTMGWYRQAPGKERELVAAITKSGGRTYYADSVKGRFTISRDNAKNTVYLQMNSLKPEDTAVYYCAADYVRNNYPYGYWGQGTQVTVSS”, the “polyreactivity (PSR sort gate)” value is on record as “high polyreactivity”. In the case of “QVQLVESGGGLVQAGGSLRLSCAASGFTFTPNAMGWYRQAPGKERELVAVITWNGGTTYYADSVKGRFTISRDNAKNTVYLQMNSLKPEDTAVYYCNADGLILYDYWGQGTQVTVSS”, the “polyreactivity (PSR sort gate)” value was “low polyreactivity”. To “QVQLVESGGGLVQAGGSLRLSCAASGFTFTPYAMGLYSQAPGKERELVAAITWRGGTYYADSVKGRFTISRDNAKKSVYLQMNSLKPEDTAVYYCAARVWRLYPSTYDYWGQGTQVTVSS” belongs “high polyreactivity”. With “QVQLVESGGGLVQAGGSLRLSCAASGFTFTQYGMGWYRQAPGKEREFVATIRFSGDNTYYADSVKGRFTISRDNAKNTVYLQMNSLKPEDTAVYYCNADNRAFFVYPVSKRYDSWGQGSQVTVSS”, the “polyreactivity (PSR sort gate)” value is “low polyreactivity”. To “QVQLVESGGGLVQAGGSLRLSCAASGFTFTRNAMGWYRQAPGKEMELVAGITFIGTSTYYADSVKGRFTISRDNAKNTVYLQMNSLKPEDTAVYYCAKEYDDYVYGYHYTRYGYWGQGTQVTVSS” belongs “low polyreactivity”; to “QVQLVESGGGLVQAGGSLRLSCAASGFTFTRNAMGWYRQAPGKERELVAAINFRSDRTFYADSVKGRFTISRDNAKNTVYLQMNSLKPEDTAVYYCAAQVGRGYEVYPVYKYGYWGQGTQVTVSS”, “high polyreactivity”; to “QVQLVESGGGLVQAGGSLRLSCAASGFTFTRNTMGWYRQAPGKERELVAAITRGGSTNYADSVKGRFTITRDNAKNTVYLQMNSLKPEDTAVYYCAADAPFDRPYNYWGQGTQVTVSS”, “low polyreactivity”. For the sequence “QVQLVESGGGLVQAGGSLRLSCAASGFTFTRYALGWYRQAPGKERELVAAISWSGGSTYYADSVKGRFTISRDNAKNTVYLQMNSLKPEDTAVYYCAKRGTVRQGGYGYWGQGTQVTVSS”, the “polyreactivity (PSR sort gate)” value is on record as “high polyreactivity”. Then “QVQLVESGGGLVQAGGSLRLSCAASGFTFTRYAMGWSRQAPGKERELVAAMSRGGTTYADSVKGRFTISRDNAKNTVYLQMNSLKPDDTAVYYCNRLRYCYPQEFGYWGLGTQVTVSS”, with “high polyreactivity”; and “QVQLVESGGGLVQAGGSLRLSCAASGFTFTRYAMGWYIQAPGKERELVAAISRRSGGRTYYADSVKGRFTISRDNAKNTVYLQMNSLKPEDTAVYYCAADYSLRSGYEYWGQGTQVTVSS”, with “high polyreactivity”; and “QVQLVESGGGLVQAGGSLRLSCAASGFTFTRYAMGWYRQAPGKERELVAAISRSGTSTYYADSVKGRFTISRDNAKNTVYLQMNSLKPEDTAVYYCAAYFGTTGRYALYDYWGQGTQVTVSS”, with “high polyreactivity”. For the sequence “QVQLVESGGGLVQAGGSLRLSCAASGFTFTRYAMGWYRQAPGKERELVATITKRGGSTYYADSVKGRFTISRDNAKNTVYLQMNSLKPEDTAVYYCAADGASRALYDFWGQGTQVTVSS”, the “polyreactivity (PSR sort gate)” value is “high polyreactivity”. “QVQLVESGGGLVQAGGSLRLSCAASGFTFTRYAMGWYRQAPGKERELVATITKRGGSTYYADSVKGRFTISRDNAKNTVYLQMNSLKPEDTAVYYCAADGASRALYDYWGQGTQVTLSS”: the “polyreactivity (PSR sort gate)” value was “high polyreactivity”. To “QVQLVESGGGLVQAGGSLRLSCAASGFTFTRYAMGWYRQAPGKERELVAVITSSGTSTYYADSVKGRFTISRDNAKNTVYLQMNSLKPEDTAVYYCAARTHRRDFYYWGQGTQVTVSS” belongs “high polyreactivity”; to “QVQLVESGGGLVQAGGSLRLSCAASGFTFTTYAMGWYRQAPRQVRELVAAITRRGGSTYYADSVKGRFTISRDNEKNTVYLQMNSLKPEDTAVYYCAAGGGWGLDFWGQGTQVTVSS”, “high polyreactivity”; to “QVQLVESGGGLVQAGGSLRLSCAASGFTFTTYVMGWSRQAPGKERELVAAISRRGTSTRYADSVKGRFTISRDNAKNTVYLQMNSLIPEDTAVYYCAADRPYSIVPYDYWGQGTQVTVSS”, “high polyreactivity”. Regarding “QVQLVESGGGLVQAGGSLRLSCAASGFTFTVYAMGWYRQAPGKERELVAAIRWSGGSTSYADSVKGRFTISRDNAKNTVYLQMNSLKPEDTAVYYCNARISDAHYQSNYFLVLYDYWGKGTQVTVSS”, the “polyreactivity (PSR sort gate)” value is “low polyreactivity”.

For “QVQLVESGGGLVQAGGSLRLSCAASGFTFTWNTMGWYRQAPGKERELVAAITKSAGSTYYADSVKGRFTISRDNAKNTVYLQMNSLKPEDTAVYYCAARRVSRGNSKFDYYWGQGTQVTVSS”, the “polyreactivity (PSR sort gate)” value is “high polyreactivity”.

Consider “QVQLVESGGGLVQAGGSLRLSCAASGFTFTYNAMGWYRQEPGKERELVAAITANGGGTNYADSVKGRFTISRDNAKNTVYLQMNSLKPEDTAVYYCAATIVVAVFESLGFYWYTEENYWGQGTLVTVSS”, for which the “polyreactivity (PSR sort gate)” value is on record as “low polyreactivity”. To “QVQLVESGGGLVQAGGSLRLSCAASGFTFTYYAMGWSRQAPGKERELVATISSGGSTYYADSVKGRFTISRDNAKYTVYLQMISLKPEDTAVYYCAVTTYSGLYGFDYWGQGTQVTVSS” belongs “low polyreactivity”; to “QVQLVESGGGLVQAGGSLRLSCAASGFTFTYYAMGWYRPAPGKERELVAAISTGGSTYYADSVKGRFTISRDNAKNTVYLQMNSLKPEDTAVYYCNAKPRYRKADRLDYWGQGTQVTVSS”, “high polyreactivity”; to “QVQLVESGGGLVQAGGSLRLSCAASGFTFTYYAMGWYRQAPAKERELVAAISSSGGRTYYADSVKGRFTISRDNAKNTVYLQMNSLKPEDTAVYYCAARSVSATPDFHYWGQGTQVTVSS”, “high polyreactivity”. Then “QVQLVESGGGLVQAGGSLRLSCAASGFTFTYYAMGWYRQAPGKERELVAAISGNGGSTYYADSVKGRFTISRDNAKNTVYLQMNSLKPEDTAVYYCNALPKSVGRWYRGDYWGQGTQVTVSS”, with “high polyreactivity”; and “QVQLVESGGGLVQAGGSLRLSCAASGFTFTYYAMGWYRQAPGKERELVAAISWSSDSTYYADSVKGRFTISRDNAKNTVYLQMNSLKPEDTAVYYWAARPGSKNVEYYYWGQGTQVTVSS”, with “low polyreactivity”. In the case of “QVQLVESGGGLVQAGGSLRLSCAASGFTFTYYAMGWYRQAPGKERELVASISRRGGDTYYADSVKGRFTISRDNAKNTVYLQMNSLKPEDTAVYYCATRRRQALDGGYYYWGQGTQVTVSS”, the “polyreactivity (PSR sort gate)” value is listed as “high polyreactivity”.

Take “QVQLVESGGGLVQAGGSLRLSCAASGFTFTYYVMGWYRQAPGKVRELVAAITRGGITDYADSVKGRFTISRDNAKNTVDLQMNSLKPEETAVYYCAAYYSYVLDYDYWGQGTQVTVSS”: the “polyreactivity (PSR sort gate)” value was “low polyreactivity”. Regarding “QVQLVESGGGLVQAGGSLRLSCAASGFTFVAYAMGWYRQAPGKERELVAAISRRGGPTYYADSVKGRFTISRDNAKYTVYLQMNSLKAEDTAVYYCAAGWKAFDQRRTGRLIRLLGQGTQVTVSS”, the “polyreactivity (PSR sort gate)” value is listed as “high polyreactivity”. “QVQLVESGGGLVQAGGSLRLSCAASGFTFVAYAMGWYRQAPGKERELVAAITWSGSRTYYADSVKGRFTISRDNAKNTVYLQMNSLKPEDTAVYYCAAGKTEGHYGYWGQGTQVTVSS”: the “polyreactivity (PSR sort gate)” value is given as “high polyreactivity”. To “QVQLVESGGGLVQAGGSLRLSCAASGFTFVAYAMGWYRQAPGKERELVAAITWSGSRTYYADSVKGRFTISRDNAKNTVYLQMNSLKPEDTAVYYCAARKTEGHYGYWGQGTQVTVSS” belongs “high polyreactivity”; to “QVQLVESGGGLVQAGGSLRLSCAASGFTFVGNAMGWYRQAPGKERELVATITSGGNTKYADSVKGRFTISRDNAKNTVYLQMNILKPEDTAVYYCAADSDSFWGVPSYYWGQGTQVTVSS”, “low polyreactivity”.

As to “QVQLVESGGGLVQAGGSLRLSCAASGFTFVGNTMGWYRQAPGKERELVAAIRGRDGRTYYADSVKGRFTISRDNEKNTVYLQMNSLKPEDTAVYYCNVDVKYSVRSEFDYWGQGTQVTVSS”, the “polyreactivity (PSR sort gate)” value is recorded as “low polyreactivity”.

“QVQLVESGGGLVQAGGSLRLSCAASGFTFVGYAMGWYRQAPGKESELVAAITSSGGSTYYADSVKGRFTISRDNAKNTVYLQMNSLKPEDTAVYYCAAPAPVLSTQKRFDSWGQGTQVTVSS”: the “polyreactivity (PSR sort gate)” value is “low polyreactivity”.

For “QVQLVESGGGLVQAGGSLRLSCAASGFTFVGYVMGWYRQAPGKERELVAAISRRGRSTYYADSVKGRFTISRDNAKNTVYLQMNSLKPEDTAVYYCNKRWSSKSVQYDYWGQGTQVTVSS”, the “polyreactivity (PSR sort gate)” value is reported as “high polyreactivity”.

For the sequence “QVQLVESGGGLVQAGGSLRLSCAASGFTFVPHTMGWYRQAPGKERELVAGINYGVGSTYYADSVKGRFTISRDNAMNTVYLQMNSLKPEDTAVYYCAADIVYLYGLLYYWGQGTQVTVSS”, the “polyreactivity (PSR sort gate)” value is “low polyreactivity”. Then “QVQLVESGGGLVQAGGSLRLSCAASGFTFVPYAMGWYRPAPGKERELLAAIDFDDATTYYADSVKGRFTISRDNAKNTVYLQMNSLKPEDTAVYYCAAVYYRRSYQGGYEYWGQGTQVTVSS”, with “high polyreactivity”; and “QVQLVESGGGLVQAGGSLRLSCAASGFTFVPYTMGWYRQAPGKERELVPRINTSGGGTYYADSVKGRFTISRDNAKNTVYLQMNSLKPEDTAVYYCAARRNYRAQPKTRWTGYYYWGQGTQVTVSS”, with “high polyreactivity”. “QVQLVESGGGLVQAGGSLRLSCAASGFTFVRYAMGWYRQAPGKERELVAAISRRGGSTYYADSVKGRFTISRDNAKNTVYLQMNSLKPEDTAVYYCNALPRPSYPFDYWGQGTQVTVSS”: the “polyreactivity (PSR sort gate)” value is on record as “high polyreactivity”. Then “QVQLVESGGGLVQAGGSLRLSCAASGFTFVRYAMGWYRQAPGKERELVAVISRSGGSTNYADSVKGRFTISRDNAKNTVYLQMNSLKPEDTAVYYCAASLQYRRLVKGGDYWGQGTQVTVSW”, with “high polyreactivity”; and “QVQLVESGGGLVQAGGSLRLSCAASGFTFVRYTMGWYRQAPGKERELVAVIRRGGSTYYADSVKGRFTISRDNAKNTVYLPMKSLKPEDTAVYYCNALSALAVEDGYWGQGTQVTVSS”, with “low polyreactivity”. In the case of “QVQLVESGGGLVQAGGSLRLSCAASGFTFVRYTMGWYRQAPGKERELVAVIRRGGSTYYADSVKGRFTISRDNAKNTVYLQMNSLKPEDTAVYYCNALSALAVEDGYWGQGTQVTVSS”, the “polyreactivity (PSR sort gate)” value is recorded as “low polyreactivity”. To “QVQLVESGGGLVQAGGSLRLSCAASGFTFVSYAMGWYRQAPGKERELVAAISKRGGSTSYADSVKGRFTISRDNAKNTVYLQMNSLKPEDTAGYYCAARYGSSYSWSNYWGQGTQVTVSS” belongs “high polyreactivity”.
